Laboratory results taken from patent US8598320B2, “Anti-PCSK9 and methods for treating lipid and cholesterol disorders” (Merck Sharp & Dohme Corp., priority 2007, dated 2013).
“And” between values parts separate entries of the source, which are not always exact repeats. Equal values may be shown once. Marks after values point to notes of the source that are not given here.

How the values were obtained:
PCSK9 [1] = biological target: T1, PCSK9 (Homo sapiens, UniProt Q8NBP7); assay: In-cell western: inhibition of PCSK9-mediated LDLR degradation in HepG2 cells; type: cell-based; set-up: The protein was added exogenously to HepG2 cells; key to Relative level of inhibition of LDLR degradation observed: Greater number of + symbols indicates a greater level of inhibition relative to other treatments.; ++: Greater number of + symbols indicates a greater level of inhibition relative to other treatments.; +++: Greater number of + symbols indicates a greater level of inhibition relative to other treatments; conditions: for Relative level of inhibition of LDLR degradation observed: PCSK9 100 nM, 18 hours, LDLR normalized to β-actin
Description: The 75B9, 77D10, 11B5, 22D11, 1F11/1G11 and 29C10 antibodies were evaluated in an in-cell western assay for their ability to inhibit the degradation of the LDL receptor by PCSK9 in HepG2 cells.
In-cell western was performed to quantitate anti-PCSK9 antibody inhibition of PCSK9-mediated LDLR degradation. HepG2 cells were seeded in 384-well collagen I coated plates and treated with anti-PCSK9 antibody and/or PCSK9 (100 nM) for 18 hours. Detection of LDLR and β-actin was performed according to the manufacturer's protocol (Li-Cor Biosciences; Lincoln, Nebr.) using the antibodies described above in conjunction with IRDye 800CW goat anti-rabbit (Li-Cor) and IRDye 680 goat anti-mouse (Li-Cor). The assay was read on an Odyssey infrared imaging system (Li-Cor) and the signal for LDLR protein in each well normalized to β-actin content.

PCSK9/LDLR interaction = PCSK9/LDLR interaction (Homo sapiens, UniProt Q8NBP7); assay: Alphascreen binding assay: inhibition of PCSK9/LDLR interaction (Example 3)
Description: An Amplified Luminescent Proximity Homogeneous Assay (ALPHA, Perkin-Elmer; Waltham, Mass.) capable of directly determining the interaction between PCSK9-FLAG and a putative binding partner was used to determine the effect of anti-PCSK9 antibodies on this interaction. This technique required that “donor” and “acceptor” beads be brought into proximity via protein-protein interaction, resulting in increased luminescence (Ullman et al., Proc. Nat. Acad. Sci. (1994) 91:5426-5430). In the basic assay, LDL receptor binding to PCSK9 was determined as follows: 5 μl of recombinant receptor at the appropriate concentrations was incubated with 2.5 μl PCSK9-FLAG (1.4 μg/ml, 30 min). About 2.5 μl of biotinylated anti-Flag-M2 antibody (1.8 μg/ml) was added and the mixture incubated for 1 hour. Afterward 5 μl of streptavidin donor bead and nickel chelate acceptor bead (1:1 mixture) was added and the assay incubated overnight. AlphaScreen signal (counts per second) was analyzed using an EnVision microplate reader (Perkin-Elmer). All data points were determined in triplicate. Assays were carried out at 23° C. in buffer containing 25 mM HEPES, 0.1 M NaCl, pH 7.4, 0.1% BSA. The inhibition assays were determined similarly with slight adjustments to assay volumes and protein concentrations. Briefly, 5 μl of 1.25 μg/ml of PCSK9-Flag and 1.25 μg/ml of His-tagged LDL receptor was incubated with 2.5 μl of antibody at the appropriate concentrations for 30 minutes followed by the addition of 2.5 μl of anti-Flag-BioM2 (1.8 μg/ml) and a 1 hour incubation.

PCSK9 [2] = biological target: T1, PCSK9; assay: In vivo inhibition of liver LDLR degradation in mice (Western blot); set-up: host or cells: Exogenous protein injected into male C57BL/6J mice; conditions: for LDLR/GAPDH / LDLR (band intensity): liver, individual mice 107-110; for LDLR (band intensity): 400 μg antibody i.p., 10 μg human PCSK9 i.v.; for Mean LDLR/GAPDH: Antibody and PCSK9 group; for % Change: mean LDLR/GAPDH vs. Saline only control
Description: (§1) The ability of an anti-PCSK9 antibody (1F11/1G11) to inhibit LDL receptor degration in mice was evaluated in these assays along with the ability of the antibodies to modulate cholesterol levels.
(§2) Time-0: Male C57BL16j mice were injected, intraperitoneal, with 400 μg of anti-human PCSK9 Antibody, 1F11/1G11. • Time-2 hours: Mice were then injected, intravenously, with 10 μg of human PCSK9 Protein. • Time-4 hours: Mice were terminated and plasma and liver samples were collected. Analysis:
Protein levels of Liver LDL Receptor were determined by Western Blot. 40 μg of each liver homogenate was separated on an Invitrogen 4-12% NuPAGE gel, transferred to PVDF membrane and incubated with goat anti-mouse LDL receptor antibody (rabbit anti-GAPDH antibody was used as a control for equal loading). Membranes were then incubated with corresponding HRP-linked antibodies and visualization was accomplished with high performance chemiluminescence film. Band intensities were quantified using ImageQuant 5.2 software.
LDL receptor levels were expressed in Arbitrary Units (AU) as a ratio of LDL receptor band intensity to GAPDH band intensity. Two separate analyses of the data are presented, […]

PCSK9 [3] = biological target: T1, PCSK9; assay: Plasma cholesterol in mice injected with human PCSK9; type: in vivo; set-up: host or cells: Exogenous protein injected into male C57BL/6J mice; conditions: Male C57BL16j mice; 400 μg antibody i.p., 10 μg human PCSK9 i.v. at 2 hours; plasma at 4 hours
Description: as §1, §2
Plasma lipoprotein profiles of individual mice (0.1 mL plasma) were determined by fast protein liquid chromatography (FPLC) with a Pharmacia Superose 6 column. FPLC fraction cholesterol levels were determined using Wako Cholesterol Enzymatic colorimetric method.

T1 sequence (Q8NBP7 153-692): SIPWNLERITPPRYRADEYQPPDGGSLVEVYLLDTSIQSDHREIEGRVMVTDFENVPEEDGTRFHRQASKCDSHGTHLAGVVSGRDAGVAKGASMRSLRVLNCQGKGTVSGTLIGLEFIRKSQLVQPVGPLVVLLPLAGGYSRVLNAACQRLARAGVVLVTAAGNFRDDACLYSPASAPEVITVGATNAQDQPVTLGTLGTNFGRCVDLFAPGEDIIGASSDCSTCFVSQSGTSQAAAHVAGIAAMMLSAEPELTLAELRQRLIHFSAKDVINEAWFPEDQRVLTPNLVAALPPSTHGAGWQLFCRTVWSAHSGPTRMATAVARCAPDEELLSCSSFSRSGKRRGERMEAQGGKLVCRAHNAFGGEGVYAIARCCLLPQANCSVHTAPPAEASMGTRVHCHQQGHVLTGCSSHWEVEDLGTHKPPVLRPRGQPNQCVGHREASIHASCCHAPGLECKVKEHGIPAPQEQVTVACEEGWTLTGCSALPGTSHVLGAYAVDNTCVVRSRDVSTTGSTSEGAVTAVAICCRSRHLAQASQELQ
PCSK9/LDLR interaction, sequence (Q8NBP7 153-692): as above
PCSK9/LDLR interaction, sequence (Q8NBP7 31-152 partner limits assumed): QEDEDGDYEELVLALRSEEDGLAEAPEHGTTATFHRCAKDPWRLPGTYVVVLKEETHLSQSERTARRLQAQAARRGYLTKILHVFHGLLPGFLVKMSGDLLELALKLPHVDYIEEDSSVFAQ

Molecule | Relative level of inhibition of LDLR degradation observed (PCSK9 [1]) | LDLR (band intensity) (PCSK9 [2]; Table 7, lightest exposure of LDLR panel) | Mean LDLR/GAPDH (PCSK9 [2]; Table 7, lightest exposure) [AU] | % Change (PCSK9 [2]; Table 7, lightest exposure) [%] | LDLR (band intensity) (PCSK9 [2]; Table 8, darker exposure of LDLR panel) | Mean LDLR/GAPDH (PCSK9 [2]; Table 8, darker exposure) [AU] | % Change (PCSK9 [2]; Table 8, darker exposure) [%] | Plasma total cholesterol level (PCSK9 [3]) [mg/dL] | % inhibition at 450 nM of antibody (PCSK9/LDLR interaction; 450 nM antibody, relative to the assay with no antibody added) | Inhibition of PCSK9-mediated LDL receptor degradation (in words) (PCSK9 [1]) | Inhibition of PCSK9/LDL receptor interaction (in words) (PCSK9/LDLR interaction) | LDLR/GAPDH (PCSK9 [2]; Table 7, lightest exposure of LDLR panel vs. GAPDH panel) | LDLR/GAPDH (PCSK9 [2]; Table 8, darker exposure of LDLR panel vs. lightest GAPDH panel)
11B5: mouse anti-human PCSK9 antibody (IgG2a); heavy chain SEQ ID NO: 10, light chain SEQ ID NO: 14 (antibody, listed as Mus musculus, V domains shown) VH: EVQLQQSGAELVKPGASVTLSCTASGFNIKDTYMHWVNQRPEQGLVWIGRIDPANGHTEYDPKFQDKATITTDTSSNTAYLHLSSLTSGDTAVYYCARSYFGSIFAYWGQGTLVTVSA VL: QIVLTQSPAIMSASPGEKVTISCSASSSVSYLYWYQQKPGSSPKPWIFRSSHRASGVPARFSGSGSGTSYSLTISSMEAEDAATYYCHQYQSYPPTFGGGTKLEIKRA | ++ |  |  |  |  |  |  |  |  | inhibit PCSK9-mediated LDL receptor degradation | effectively inhibit interaction between PCSK9 and the LDL receptor |  | 
1F11/1G11: mouse anti-human PCSK9 antibody (IgG2a); heavy chain SEQ ID NO: 50, light chain SEQ ID NO: 54 (antibody, listed as Mus musculus, V domains shown) VH: EVQLQQSGPELVKPGASVKISCKVSGYTFTDYYMNWVKQSHGKSLEWIGDINPNNGGAIYNQKFKGKATLTVDKSSSIAYMELRSLTSEDSAVYYCTSGIITEIAEDFWGQGTTLTVSS VL: DIVMTQSQKFMSTSVGDRVSVTCKASQNVGTNVVWYQQKPGQSPKALIHSASYRYSGVPDRFKGSGSGTDFTLTITNVQSEDLAGFFCQQYKTYPYTFGGGTQLEIKRA | +++ | 13714 and 13766 and 12508 and 5977 | 0.235 | −48.0 | 19883 and 18057 and 18642 and 10669 | 0.377 | −35.2 | 72.05 | 88* % | inhibit PCSK9-mediated LDL receptor degradation | effectively inhibit interaction between PCSK9 and the LDL receptor | 0.272 AU and 0.278 AU and 0.262 AU and 0.128 AU | 0.439 AU and 0.396 AU and 0.426 AU and 0.249 AU
22D11: anti-human PCSK9 antibody (IgG1); heavy chain SEQ ID NO: 42, light chain SEQ ID NO: 46 (antibody, listed as Mus musculus, V domains shown) VH: EVQLVDSGGGLVQPGRSLKLSCAASGFTFSNHDMAWVRQAPTKGLEWVASITPSGGTTYYRDSVEGRFTVSRDNVKSSLHLQMDSLTSEDTATYYCARQNYYDGSYYYGLYYFDYWGQGVMVTVSS VL: DVLMTQTPVSLPVSLGGQVSISCRSSQSLVYSDGNTYLHWYLQKPGQSPQLLIYRVSNRFSGVPDRFSGSGSGTDFTLKISRVEPEDLGLYYCLQSTHFPPTFGSGTKLEIKRA | + |  |  |  |  |  |  |  |  | inhibit PCSK9-mediated LDL receptor degradation | effectively inhibit interaction between PCSK9 and the LDL receptor |  | 

Further lines, with some results ahead:

Relative level of inhibition of LDLR degradation observed (PCSK9 [1]) | LDLR (band intensity) (PCSK9 [2]; Table 7, lightest exposure of LDLR panel) | Mean LDLR/GAPDH (PCSK9 [2]; Table 7, lightest exposure) [AU] | % Change (PCSK9 [2]; Table 7, lightest exposure) [%] | LDLR (band intensity) (PCSK9 [2]; Table 8, darker exposure of LDLR panel) | Mean LDLR/GAPDH (PCSK9 [2]; Table 8, darker exposure) [AU] | % Change (PCSK9 [2]; Table 8, darker exposure) [%] | Plasma total cholesterol level (PCSK9 [3]) [mg/dL] | % inhibition at 450 nM of antibody (PCSK9/LDLR interaction; 450 nM antibody, relative to the assay with no antibody added) | Molecule | Inhibition of PCSK9-mediated LDL receptor degradation (in words) (PCSK9 [1]) | Inhibition of PCSK9/LDL receptor interaction (in words) (PCSK9/LDLR interaction) | LDLR/GAPDH (PCSK9 [2]; Table 7, lightest exposure of LDLR panel vs. GAPDH panel) | LDLR/GAPDH (PCSK9 [2]; Table 8, darker exposure of LDLR panel vs. lightest GAPDH panel)
+ |  |  |  |  |  |  |  |  | 29C10: mouse anti-human PCSK9 antibody (IgG2a); heavy chain SEQ ID NO: 34, light chain SEQ ID NO: 38 (antibody, listed as Mus musculus, V domains shown) VH: EVLLQQSVAELVRPGASVRLSCTASGFNIKDTYIHWVRQRPEQGLEWFGWIDPANGYTKYAPNFQGKATLTTDTSSNTAYLHLSSLTSEDSAIYYCARGYYRYYSLDYWGQGTSVTVSS VL: DIQMTQTTSSLSASLGDRVTISCRASQDISNYLNWYQQKPDGTVKLLIYYSSRLHSGVPSRFSGRGSGTDYSLTISTLEQEDIATYFCQQGKTLPLTFGAGTKLELKRA | inhibit PCSK9-mediated LDL receptor degradation | effectively inhibit interaction between PCSK9 and the LDL receptor |  | 
++ |  |  |  |  |  |  |  |  | 75B9: mouse anti-human PCSK9 antibody (IgG2a); heavy chain SEQ ID NO: 18, light chain SEQ ID NO: 22 (antibody, listed as Mus musculus, V domains shown) VH: EVQLQQSGADLVKPGASVKLSCTASGFNIKDTYIHWVKQRPEQGLEWIGRIDPANGHTEYDPKFQGRATLTTDTSSNTAYLQLFSLTSEDSAVYFCARSYYGSIFAYWGQGTLVTVSA VL: QIVLTQSPAIMSASPGEKVTISCSASSSVSYLFWYQQKPGSSPKPWIFRTSYLASGVPARFSGSGSGTSFSLTISSMEAEDAATYYCHQYHTYPPTFGGGTKLEIKRA | inhibit PCSK9-mediated LDL receptor degradation | effectively inhibit interaction between PCSK9 and the LDL receptor |  | 
++ |  |  |  |  |  |  |  |  | 77D10: mouse anti-human PCSK9 antibody (IgG2b); heavy chain SEQ ID NO: 26, light chain SEQ ID NO: 30 (antibody, listed as Mus musculus, V domains shown) VH: EVQLQQSGAELVRSGASVKLSCTTSGFNIKDYYIHWVKQRPEQGLEWIGWIDPENGDTEYAPKFQGKATMTADTSSNTAYLQLSSLTSADTAVYYCNAYYRYDDGTWFPYWGQGTLVTVSA VL: DIQLTQSPASLSASVGETVTITCRASGNIHSYLAWYQQKQGKSPQFLVDNAKTLPDGVPSRFSVSGSGTQYSLKINSLQPEDFGTYYCQHFWNTPWTFGGGTKLEIKRA | inhibit PCSK9-mediated LDL receptor degradation | effectively inhibit interaction between PCSK9 and the LDL receptor |  | 
